Target: HIV-1 protease (EC 3.4.23.16) (HIV-1)
Assay: cell-based or functional assay

B1: inhibitor 04 (other, not shown: small tags and cut ends)
chain: KMEGKSMLKLSHVLAFLLLASLFQSLMARDLISDGIEVLQLPVENEGESVFCPGKLSWPELVGMPAGYAKAIIEKENSIVHDVRLLLPGMVKPANYVCGRVFLVVDLKLIVQIPPSMG
- IC50 (enzyme inhibition): 670 nM
